Changes are numbered by the printed parent chain. In names and notes the source's numbering stands.
What was measured:
[1] = target: Lck (UniProt P06239 2-509, limits assumed); assay: pull-down from 293TM lysates on Her2 antigen beads, western blot for Lck
Procedure: In FIG. 13A, Her2 antigen was covalently attached to magnetic beads. […] Beads were incubated with cell lysates over night and subsequently washed and western blotted. Lck was detected using an Lck antibody, TACs were detected via Myc antibody. […] Signal was corrected relative to the negative control.

[2] = target: T1, Her2Fc (UniProt P04626 23-652, limits assumed); assay: flow cytometry, transduced T cells incubated with Her2Fc (FIG. 2)
T1 construct: It is printed both as Her2Fc and as FcHer2; also called FcHer2; FcHer2 antigen; not shown: Fc part
Procedure: T-cells had been incubated with Her2Fc, which later was detected via flow cytometry. The presented data was gated on CD8+ lymphocytes. The shown gates were chosen based on the untransduced control.

[3] = target: T1, Her2Fc; assay: flow cytometry, engineered PBMC, NGFR marker and FcHer2 (FIG. 16B)

Lck, sequence (P06239 2-509 limits assumed): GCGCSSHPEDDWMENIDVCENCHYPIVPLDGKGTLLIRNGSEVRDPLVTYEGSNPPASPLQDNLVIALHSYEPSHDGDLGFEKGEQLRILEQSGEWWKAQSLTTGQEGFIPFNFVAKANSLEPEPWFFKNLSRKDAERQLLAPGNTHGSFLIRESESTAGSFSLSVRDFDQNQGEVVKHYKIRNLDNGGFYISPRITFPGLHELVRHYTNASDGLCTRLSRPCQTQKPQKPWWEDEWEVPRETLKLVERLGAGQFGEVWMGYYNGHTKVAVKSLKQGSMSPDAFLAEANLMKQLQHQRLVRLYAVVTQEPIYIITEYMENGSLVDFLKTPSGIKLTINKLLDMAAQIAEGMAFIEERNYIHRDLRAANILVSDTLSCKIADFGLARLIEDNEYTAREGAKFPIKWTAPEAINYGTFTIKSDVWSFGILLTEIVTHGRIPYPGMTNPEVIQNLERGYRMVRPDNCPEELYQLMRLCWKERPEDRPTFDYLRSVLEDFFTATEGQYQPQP

B1: CD4 TAC -cytosol (receptor)
chain: MSRGSDLGKKLLEAARAGQDDEVRILMANGADVNAKDEYGLTPLYLATAHGHLEIVEVLLKNGADVNAVDAIGFTPLHLAAFIGHLEIAEVLLKHGADVNAQDKFGKTAFDISIGNGNEDLAEILQKLNEQKLISEEDLNPGGGGGSGGGGSGGGGSGGGGSGSMDIQMTQTTSSLSASLGDRVTISCRASQDIRNYLNWYQQKPDGTVKLLIYYTSRLHSGVPSKFSGSGSGTDYSLTISNLEQEDIATYFCQQGNTLPWTFAGGTKLEIKGGGGSGGGGSGGGGSGGGGSEVQLQQSGPELVKPGASMKISCKASGYSFTGYTMNWVKQSHGKNLEWMGLINPYKGVSTYNQKFKDKATLTVDKSSSTAYMELLSLTSEDSAVYYCARSGYYGDSDWYFDVWGQGTTLTVFSTSGGGGSLESGQVLLESNIKVLPTWSTPVQPMALIVLGGVAGLLLFIGLGIFF
notes: It was detected through its Myc tag in the pull-down; also called TAC cytosolic deletion variant; cytosolic deletion
[1]
  binding result: no binding

B2: N-Darpin Tri-TAC (receptor)
chain: MSRGSDLGKKLLEAARAGQDDEVRILMANGADVNAKDEYGLTPLYLATAHGHLEIVEVLLKNGADVNAVDAIGFTPLHLAAFIGHLEIAEVLLKHGADVNAQDKFGKTAFDISIGNGNEDLAEILQKLNEQKLISEEDLNPGGGGGSGGGGSGGGGSGGGGSGSMDIQMTQTTSSLSASLGDRVTISCRASQDIRNYLNWYQQKPDGTVKLLIYYTSRLHSGVPSKFSGSGSGTDYSLTISNLEQEDIATYFCQQGNTLPWTFAGGTKLEIKGGGGSGGGGSGGGGSGGGGSEVQLQQSGPELVKPGASMKISCKASGYSFTGYTMNWVKQSHGKNLEWMGLINPYKGVSTYNQKFKDKATLTVDKSSSTAYMELLSLTSEDSAVYYCARSGYYGDSDWYFDVWGQGTTLTVFSTSGGGGSLESGQVLLESNIKVLPTWSTPVQPMALIVLGGVAGLLLFIGLGIFFCVRCRHRRRQAERMSQIKRLLSEKKTCQCPHRFQKTCSPI
notes: Chimeric receptor expressed on engineered human T cells (in 293TM cells for the pull-down); also called full length CD4-TAC
[2]
  binding result: binds

B3: CD4 TAC A85V, T161P mutant (receptor)
chain: B2 chain with A249V, T325P
notes: CD4 TAC with the mutated UCHT1 domain; also called UCHT1 (A85V, T161P)
[3]
  binding result: binds

Source: US20230212258A1 (MCMASTER UNIVERSITY, published 2023)
